B1: Azoarcus group I ribozyme (parent)
chain: GUGCCUUGCGCCGGGAAACCACGCAAGGGAUGGUGUCAAAUUCGGCGAAACCUAAGCGCCCGCCCGGGCGUAUGGCAACGCCGAGCCAAGCUUCGGCGCCUGCGCCGAUGAAGGUGUAGAGACUAGACGGCACCCACCUAAGGCAAACGCUAUGGUGAAGGCAUAGUCCAGGGAGUGGCGAAAGUCACACAAACCGG

This data set covers variants of B1. The data set is described as follows: reverse-splicing fitness (ratio to wild type); higher = more active; in vitro selection; Mg2+ level not given. The gist of the method: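 An in vitro group I ribozyme library with randomized positions was T7-transcribed and gel-purified. In triplicate, 10 pmol RNA in EPPS pH 7.5 was reacted with 50 pmoles of a 30-nt RNA substrate for 1 h at 37 °C across several added MgCl2 levels (1–48 mM), then stopped with EDTA. Products were reverse transcribed from a substrate-complementary primer, PCR-amplified and sequenced (HiSeq 4000). Fitness is a variant's read proportion after selection over that before, normalised to wild type.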
For C82G A111G A120G C150G C169G, the reverse-splicing fitness was determined as 0.00788.

Regarding C82U A111G A120G C150A C169G, the reverse-splicing fitness came to 0.00939. C82U A111G A120U A145G C150G C169A U176G: the reverse-splicing fitness worked out at 0.00326. On to C82A A111C A145U C150G U176G, for which the reverse-splicing fitness stood at 0.00428. For C82U A111C A120U C150A, the reverse-splicing fitness is 0.0078. With A111U A145C C150G U176G, the reverse-splicing fitness came out at 0.0277.

Regarding C82G A120U A145C C150A C169G U176C, the reverse-splicing fitness was 0.00207.

Take C82G A111C C150U U176G: the reverse-splicing fitness was found to be 0.0217. Consider C82G A111U C150G C169G U176C, for which the reverse-splicing fitness amounted to 0.00587. Take C82A A111G A145G C169U: the reverse-splicing fitness was 0.0126. With A111C C150A U176G, the reverse-splicing fitness was determined as 0.0531. Under C82A A111U A120C C150U stands 0.0206; under A111U A145U C150A C169A, 0.01. As for C82U A145G C150G C169A U176C, the reverse-splicing fitness came to 0.0125.

C82G A120G A145U U176A: the reverse-splicing fitness turned out to be 0.0157. Turning to C82U A111U A120C A145C C150U C169A U176A, the reverse-splicing fitness was 0.0088.

In the case of A120C A145C U176C, the reverse-splicing fitness is 0.574. As to A120C C150G U176C, the reverse-splicing fitness was 0.114. Next, A111C A120G A145C C150U C169A U176G: 0.00455; C82U A111C A120C A145U C150G C169A U176G: 0.00632.

Consider A111G A145C C150A C169U U176C, for which the reverse-splicing fitness was 0.0113. Turning to A111G A145G C150A C169G U176G, the reverse-splicing fitness was found to be 0.00564. Take C82G A120G A145C C150G C169U U176G: the reverse-splicing fitness stood at 0.00495. Consider C82G A120G A145U C150U C169A U176G, for which the reverse-splicing fitness came to 0.00467. Regarding C82G A111G A120C A145C C150G C169A U176G, the reverse-splicing fitness amounted to 0.00627.

As for A111U A120U C150A C169G U176A, the reverse-splicing fitness amounted to 0.00698. Regarding C82G A145U C150U C169G U176G, the reverse-splicing fitness was 0.00545.

As for C82G A111G A120C A145G C169G U176C, the reverse-splicing fitness was determined as 0.0188. Turning to C82A A120C A145G C169U, the reverse-splicing fitness worked out at 0.0214. Take C82U A111U A120G A145U C150A U176C: the reverse-splicing fitness turned out to be 0.0112. As for C82U A120G A145U C150U U176A, the reverse-splicing fitness was 0.0102. Regarding C82G A120G A145U C150A C169G U176G, the reverse-splicing fitness came out at 0.00401. As for C82G A111C A120C C169A U176A, the reverse-splicing fitness stood at 0.0156. Take C82U A111U A120U A145C C150A C169A U176C: the reverse-splicing fitness was found to be 0.00217.

As for C82A A111C A120C A145U C150G C169A, the reverse-splicing fitness came out at 0.00977. As to C82G A111C A120C A145G C150A C169A, the reverse-splicing fitness was 0.0122. Turning to C82U A111G A145C C169G U176A, the reverse-splicing fitness was found to be 0.0196. Under C82U A111G A120U A145U C150G stands 0.00775; under C82A A111U A120C C150G C169U U176C, 0.011; under C82U A111G A120C A145C C150A C169A U176C, 0.00523.

C82A A120U A145G C169A: the reverse-splicing fitness turned out to be 0.00287. As to C82U A111C A120C A145G C169G, the reverse-splicing fitness came out at 0.00841. For C82G A111C A120G A145G C150U C169G U176G, the reverse-splicing fitness is 0.00501. Next, C82U A111U A120G A145U C150A C169U U176C: 0.0141.

For the variant C82U A111U A120G A145C C150A U176A, the reverse-splicing fitness is 0.00746.

As to A111U A145C C150G C169A U176A, the reverse-splicing fitness was 0.0076. With A111U A145C C150G C169A U176G, the reverse-splicing fitness is 0.00612. Take C82A A111G A120G C150A C169G U176C: the reverse-splicing fitness came out at 0.0245. On to C82U A111U A120U A145G C169A, for which the reverse-splicing fitness was 0.0029. For the variant A111U A120C A145G C150A C169A U176A, the reverse-splicing fitness stood at 0.0184. Next, C82G A111U A120C C150G C169G U176C: 0.00622; C82G A120G A145U C150A C169U: 0.00806. Consider C82G A120G A145U C150A C169A, for which the reverse-splicing fitness came to 0.00985.

On to C82U A111U C150G C169G U176A, for which the reverse-splicing fitness stood at 0.00711. Turning to C82U A120C C150A U176C, the reverse-splicing fitness worked out at 0.0193. Regarding C82A A111U A120C A145C C150U U176G, the reverse-splicing fitness stood at 0.00643.

For the variant C82U A111G A120U A145G C150G C169G U176A, the reverse-splicing fitness was 0.0073. With C82U A120C A145U C150A C169A U176G, the reverse-splicing fitness came out at 0.00386. Regarding A111U A120C C150A U176A, the reverse-splicing fitness came to 0.0374. Next, C82G A120C C150G C169U U176G: 0.00535.

Regarding C82A A111U A120G C150G C169U U176G, the reverse-splicing fitness is 0.00618.

Regarding C82A A111C A120C A145U C150U C169G U176G, the reverse-splicing fitness stood at 0.00815.

Take C82U A111C A145U C150U C169A: the reverse-splicing fitness was determined as 0.00889. As to C82A A111G A120U C150G C169U, the reverse-splicing fitness came to 0.00601. As for C82U A120G A145C C169U U176A, the reverse-splicing fitness was 0.0224. Under C82U A111G A120U A145G C150A C169G U176C stands 0.00574; under A111G A145U C150G C169U, 0.0229.

For C82A A111C A120C A145G C169G U176C, the reverse-splicing fitness was found to be 0.0247. Regarding C82G A111U A120G A145C U176C, the reverse-splicing fitness was found to be 0.0136. With C82U A111C A120U A145U C150A C169A U176G, the reverse-splicing fitness was determined as 0.00255. Turning to C82G A120G A145G C150U C169G, the reverse-splicing fitness was found to be 0.04. For the variant C82U A111U A145C C150U C169U, the reverse-splicing fitness stood at 0.0089. In the case of A111C A120G A145U C150G C169U U176A, the reverse-splicing fitness stood at 0.0111. Turning to C82G A111C A145C C169U U176G, the reverse-splicing fitness was found to be 0.00741. For C82G A111U C150G C169U U176C, the reverse-splicing fitness is 0.0129. Next, C82G A111C A120U C150G U176A: 0.00422; C82U A111U A145U C169G: 0.00791. Take C82U A120G U176G: the reverse-splicing fitness turned out to be 0.00399. Take C82G A111G A120U C150G C169G U176A: the reverse-splicing fitness came to 0.00638.

Consider A111C A145C C169U, for which the reverse-splicing fitness worked out at 0.118.

Regarding C82A A111C A120U A145C C150G C169G, the reverse-splicing fitness was 0.00355. A145G C150U C169U: the reverse-splicing fitness was 0.382.

Take C82G A120C A145C C150G C169G U176A: the reverse-splicing fitness stood at 0.0101.

The values above are taken from the RNAGym collection of RNA variant scans (doi:10.1093/molbev/msab373).
